Test results reported in the supplement of paper PMC10567573.
± gives the standard deviation.

Experiment: protein stability index of a GFP-peptide fusion (GPS, HEK-293T) (PSI 1-6); higher = more stable
[1] = treatment: DMSO, c terminus: a fixed tail appended
[2] = treatment: MLN4924 1 uM, 8 h, c terminus: a fixed tail appended
[3] = treatment: DMSO, c terminus: native
[4] = treatment: MLN4924 1 uM, 8 h, c terminus: native
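Further: 24-mer peptide tiles fused after GFP, lentivirally expressed, FACS-sorted into six equal bins by GFP/DsRed ratio, decoded by Illumina sequencing, PSI is the read-weighted mean bin number.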

Sequence	protein stability index [1]	protein stability index [2]	protein stability index [3]	protein stability index [4]
APLQSVFQGQKTELNNCISMLVAG [TRIM63]	2.85 ± 0.19	2.88 ± 0.22	–	–
ASETFNYSAIDRVKSRGKRLALEK [PI4K2A]	4.22 ± 0.044	4.4 ± 0.26	–	–
PLDMFSEEIKFYELGEEAMEKFRE [KCNA1]	4.71 ± 0.31	4.85 ± 0.12	–	–
LHIFQLNEDGPSSENLEEETENII [TRIP13]	3.96 ± 0.58	4.21 ± 0.28	–	–
AAMFGGSFVESANSEVYLPNINKI [RHOBTB1]	2.93 ± 0.23	2.93 ± 0.18	–	–
SGACGAFVHGLEDEMYEVRIAAVE [INTS4]	2.71 ± 0.46	2.73 ± 0.5	–	–
KEASRHAIMRSPQMVSAIVRTMQN [CTNNB1]	3.15 ± 0.32	3.3 ± 0.35	–	–
EKPRVPAFACQVAGCCQVFDALDD [ZNF511]	3.94 ± 0.22	3.99 ± 0.092	–	–
RILDELTLCKADLEAQVESLKEEL [KRT36]	3.76 ± 0.35	3.68 ± 0.54	–	–
PRLQELLGPSPQRDPQAVKERALS [ZNF263]	4.6 ± 0.27	4.65 ± 0.3	–	–
RELESREAELRRRDTFYKEQLERI [CHCHD6]	4.56 ± 0.12	4.87 ± 0.39	–	–
LEQFVTRFLLKETLNQLQSLQNSL [NECAB1]	2.87 ± 1.3	2.76 ± 0.27	–	–
ERLKANDNLKFSQEYESIDPGQQF [PTPRD]	4.21 ± 0.12	4.22 ± 0.16	–	–
LFGHPGLDMELGPSQGQETNEVCE [ADAMTSL2]	–	5.29 ± 0.35	–	–
KECVSILPRKESPSVRSSKDGKLL [TNFSF13B]	4.53 ± 0.11	4.56 ± 0.091	–	–
TPEAKDLINKMLTINPSKRITAAE [CAMK2A]	4.28 ± 0.17	4.42 ± 0.1	–	–
PSDLDQFSDSSLIEDSQALHKRPK [LURAP1L]	5.49 ± 0.24	5.43 ± 0.11	–	–
ELSNILNLSYKQVKTWFQNQRMKS [NANOGP8]	2.63 ± 0.49	2.38 ± 0.43	–	–
LMGEIAKATFMYEQFPELMNMLWS [CLINT1]	2.61 ± 0.62	2.33 ± 0.32	–	–
TCGEGYQFRVVRCWKMLSPGFDSS [ADAMTSL2]	2.77 ± 0.43	2.28 ± 0.38	–	–
HTHPSACQGQRLFEKLLQLTSQNI [PLD5]	2.21 ± 0.21	1.84 ± 0.37	–	–
IETLRLAKNYIWALSEILRIGKRP [NEUROD6]	3.08 ± 0.73	2.65 ± 0.57	–	–
AMELKVEDPFYWVSPGVLVLLAVL [MOG]	2.8 ± 0.94	2.55 ± 0.34	–	–

Sequence	protein stability index [1]	protein stability index [2]	protein stability index [3]	protein stability index [4]
RALEEVEMKLQKNFLTQRENTIAG [C10orf62]	3.48 ± 0.081	3.73 ± 0.33	–	–
KVIYDFIEKTGGVEAVKNELRRQA [WASL]	2.13 ± 0.41	2.28 ± 0.23	–	–
KCLKFLGSRHPTLVLPLVPELLST [INTS4]	2.29 ± 0.41	2.23 ± 0.18	–	–
RPSEIKDYSPYFKTIEDLRNKIIA [KRT16]	2.28 ± 0.18	2.41 ± 0.22	–	–
ATQIQQLLQDKQFELALQLAEMKD [VPS39]	3.11 ± 0.32	3.41 ± 0.43	–	–
GVEIDEINVYGNTALHIACYNGQD [ANKRD44]	3.58 ± 0.19	3.55 ± 0.33	–	–
RHPPKVGDDSDLSEGFESDSSHDS [SMG5]	5.46 ± 0.18	5.51 ± 0.21	–	–
PTPKCLRLCFFPFVENGHSESSGQ [CFHR2]	2.54 ± 0.093	2.72 ± 0.24	–	–
VTSFDSVVPEKLDDLVPKGKKFLL [ALG2]	3.32 ± 0.25	3.31 ± 0.16	–	–
SREWSGKEKWWDGQRDRKAEHWKH [PBXIP1]	3.69 ± 0.27	3.91 ± 0.064	–	–
LIPLANTGIVNHTHSRMGSIMSTG [CARM1]	2.59 ± 0.12	2.47 ± 0.14	–	–
PTPDDHVFRWLAYSYASTHRLMTD [CPXM2]	2.64 ± 0.49	2.62 ± 0.59	–	–
PVPSAPVIDLAESLVADNCVTLVW [FSD1]	2.56 ± 0.37	2.1 ± 0.24	–	–
QHYTETALDEIKLLKCVRESDPSD [SRPK2]	4.82 ± 0.22	4.92 ± 0.16	–	–
LHSHRHLYPEGIGARQQQVTTYLH [POMT2]	2.76 ± 0.21	2.82 ± 0.2	–	–
RPIGEFRSNADYQYQLLRCNVDLL [CNOT7]	2.5 ± 0.2	2.47 ± 0.16	–	–
GGRGVSTCSTRFVSGGSAGGYGGG [KRT13]	3.77 ± 0.41	3.97 ± 0.15	–	–
NRMHESMKLFDSICNNKWFTDTSI [GNAI1]	2.38 ± 0.27	2.33 ± 0.45	–	–
TTADLDRKLSFSHSDHSSEMSLPE [SPATS1]	5.08 ± 0.19	4.82 ± 0.27	–	–
IQAEERLDMEKRRCRQSLEDSESL [LRRC45]	5.08 ± 0.27	5.16 ± 0.1	–	–
SKEKDTQNQNITLDCEGTTNKMKS [KMT2E]	5.29 ± 0.058	5.28 ± 0.45	–	–
MSWEKEEGKSRHVDFQCVKSKSIT [BTBD10]	4.48 ± 0.085	4.42 ± 0.2	–	–
EIELQAQHNLRDSLENTLTESEAH [KRT34]	5.3 ± 0.27	5.18 ± 0.16	–	–

Sequence	protein stability index [1]	protein stability index [2]	protein stability index [3]	protein stability index [4]
SIPLTPGDTPIRKKEELLFDDGDD [FBF1]	5.51 ± 0.54	5.62 ± 0.17	–	–
AQEKAADVQARLNRSDHGIFHSRT [FCHSD1]	4.19 ± 0.072	4.37 ± 0.48	–	–
DMLREMFSDSRSNNDDDEDEDDED [TAF7L]	5.36 ± 0.36	5.63 ± 0.17	–	–
SYLHAKKYLKPSGNMFPTIGDVHL [CARM1]	2.35 ± 0.39	2.64 ± 0.52	–	–
LMNDVIDTSGFPDLSDNRNEDPLV [FBXO33]	4.85 ± 0.17	4.9 ± 0.18	–	–
CQGVSEAAHRLARRLYHLEGFQRC [PSD2]	2.41 ± 0.21	2.54 ± 0.17	–	–
FEYRGEQHKTCMLNATSKFMEFYQ [EDNRA]	2.08 ± 0.36	1.89 ± 0.32	–	–
DGEEIPVQKNILAAASPYIRTKLN [GAN]	4.13 ± 0.33	4.32 ± 0.28	–	–
NREVATNSELVQSGKSEISELRRT [KRT17]	5 ± 0.22	5.09 ± 0.24	–	–
IGGVATVVCQPNEFIMPDSAVVGD [SEPHS2]	3.72 ± 0.34	3.76 ± 0.44	–	–
VQLRFCGRQPCGRFLRAYREGALR [TRADD]	2.61 ± 0.53	2.29 ± 0.65	–	–
LVKNLKDTLGLGKTRRKTSARDAS [NCK2]	3.19 ± 0.38	3.35 ± 0.3	–	–
RACSHLIRLMQRCWQGDPRVRPTF [RIPK4]	2.87 ± 0.45	2.83 ± 0.2	–	–
ALIPYVLNPSKLMEKEINGSKVTC [ATL3]	2.13 ± 0.2	2.2 ± 0.39	–	–
SVSRPEGRSWPSAPDDSKAQAHRI [PDLIM4]	4.76 ± 0.21	4.95 ± 0.18	–	–
FHYVDILALLPAAWEDSHGSQDGH [SCNN1D]	2.26 ± 0.56	2.13 ± 0.25	–	–
SLGSESEEEEEFYDADEETQMIK [SLC22A15]	–	–	5.01 ± 0.35	4.92 ± 0.37
AGSRQALSFEVPPCNYDPEKWIQ	–	–	2.69 ± 0.59	3.35 ± 0.51
AGGFQQRQGLKYCLPLTFCIHTGL [FBXO3]	2.58 ± 0.57	2.4 ± 0.24	–	–
LSIVLERMRYEGVVDIFQTVKMLR [PTPRD]	2.1 ± 0.48	2.42 ± 0.58	–	–
DNAEAAFSDDEEDLNSKGKKREFR [INTS3]	5.51 ± 0.16	5.47 ± 0.2	–	–
LGYFIRSWRTLAILVNLQGTVVFL [SLC22A15]	2.71 ± 0.55	2.62 ± 0.75	–	–
PPLSGRSTPKLTSRSAAQDLDRMG [PPFIA4]	4.49 ± 0.19	4.62 ± 0.096	–	–

Sequence	protein stability index [1]	protein stability index [2]	protein stability index [3]	protein stability index [4]
GSLRTLELGSESQGASESQAPGEE [HDAC6]	5.52 ± 0.29	5.58 ± 0.22	–	–
QPAKKPLLWSDPADNKIVSHLLVA [ESRRG]	2.36 ± 0.17	2.63 ± 0.26	–	–
ELVYADDYIMDEDQSKLAGLLDLN [ESRRG]	3.48 ± 0.21	3.68 ± 0.21	–	–
GVGFATRKVAGMAKPNMIISVNGD [FABP4]	3.02 ± 0.28	3.04 ± 0.47	–	–
EEQESVDTGEEEEGGDESDLSSES [EHMT1]	5.57 ± 0.19	5.64 ± 0.16	–	–
PSPSEVITPWTPSPSEKNSSFTWS [SMTNL2]	4.22 ± 0.095	4 ± 0.062	–	–
LGLRSLIPAVLTVSMLGYPFILPD [MYORG]	3.1 ± 0.55	3.07 ± 0.36	–	–
TSDAAFLTQWKDSLVSLVLYNMDL [ZER1]	2.71 ± 0.52	2.56 ± 0.44	–	–
VLRCQLGDRLNVEVDAAPPVDLNK [KRT36]	4.06 ± 0.11	4.14 ± 0.25	–	–
KPASKPAGSSHTPSSQSSSGGGRD [ELOA2]	5.47 ± 0.3	5.48 ± 0.19	–	–
KTRTVFSSTQLCVLNDRFQRQKYL [NANOGP8]	2.5 ± 0.12	2.67 ± 0.29	–	–
SKCLVDDGTGRMPTLKKCEDVARP [GALNT9]	4.57 ± 0.16	4.54 ± 0.21	–	–
GEKSENNSSNSDIVHVEKEEVPEG [BCL2L13]	5.8 ± 0.2	5.3 ± 0.76	–	–
PGRGVYLLKFDNSYSLWRSKSVYY [ACBD3]	2.78 ± 0.52	2.69 ± 0.76	–	–
ESVADLLALEEPVDYKQSVLNVAG [SLC6A17]	4.43 ± 0.1	4.58 ± 0.24	–	–
LRQRESKWLDMLNNWDKWMAKKHK [TBC1D10A]	2.9 ± 0.24	3.2 ± 0.41	–	–
IITIGYNVYHSYDLPWFRTLSWYF [CDS2]	3.08 ± 0.23	3.2 ± 0.27	–	–
TLDSYEDKQKLKRTEIISRSWFPS [YJU2B]	3.14 ± 0.12	3.24 ± 0.29	–	–
WAVVTMTTVGYGDMKPITVGGKIV [KCNA4]	2.84 ± 0.38	2.72 ± 0.55	–	–
SSLLAPAKHLIASMLSKNPEDRPS [PLK2]	3.2 ± 0.38	3.37 ± 0.18	–	–
